The text below walks through data of paper PMC9456320.

Some results are limits rather than exact numbers.

The target in the first test is C-terminally mKGC-tagged ORF30 (ORF30-mKGC). In words: BiFC assay, flow cytometry. To be noted: 293T cells; co-transfected with mCherry transfection control; three independent samples; ASC10mut protein expression was not confirmed by Western blotting; parent: 99.8. For orientation: Flow cytometry measures light scatter and fluorescence of single cells or particles in a stream.
In the case of “N-terminally mKGN-tagged ORF18 (mKGN-ORF18) WT P156A; R158A; L159A”, the response was 14.4%.

Still in this test, the particulars now being: 293T cells; co-transfected with mCherry transfection control; three independent samples; parent: 99.8.
Turning to “N-terminally mKGN-tagged ORF18 (mKGN-ORF18) WT G195A; L197A”, the response amounted to 87.5%. The same measure, in the same setting: the same measure for “N-terminally mKGN-tagged ORF18 (mKGN-ORF18) WT L24A; L29A”: 16.7%; for “N-terminally mKGN-tagged ORF18 (mKGN-ORF18) WT L151A; G152A; S153A”: 72.6%; for “N-terminally mKGN-tagged ORF18 (mKGN-ORF18) WT G3A”: 99.8%. Consider “N-terminally mKGN-tagged ORF18 (mKGN-ORF18) WT F187A; L191A”, for which the response came to 32.7%. The same measure, in the same setting: as for “N-terminally mKGN-tagged ORF18 (mKGN-ORF18) WT E176A; V179A; R180A”, the figure is 75.3%; as for “N-terminally mKGN-tagged ORF18 (mKGN-ORF18) WT L142A; D144A; G145A; N146A”, 81.3%; as for “N-terminally mKGN-tagged ORF18 (mKGN-ORF18) WT N53A; Y55A; L56A”, 39.9%. As to “N-terminally mKGN-tagged ORF18 (mKGN-ORF18) WT E36A; L37A; R38A”, the response was 9.76%.

In the case of “N-terminally mKGN-tagged ORF18 (mKGN-ORF18) WT C166A; L167A; W170A; G171A”, the response was determined as 14.2%. “N-terminally mKGN-tagged ORF18 (mKGN-ORF18) WT H41A; L44A”: the response was 16.2%.

In the case of “N-terminally mKGN-tagged ORF18 (mKGN-ORF18) WT P14A; G15A; L19A”, the response worked out at 14.1%.

The test is the same for the next values; noted with them: 293T cells; co-transfected with mCherry transfection control; three independent samples; parent: 99.9.
For the substance “N-terminally mKGN-tagged ORF18 (mKGN-ORF18) WT W170A”, the response turned out to be 25.6%.

For the substance “N-terminally mKGN-tagged ORF18 (mKGN-ORF18) WT L19A”, the response was found to be 99.1%.

Take “N-terminally mKGN-tagged ORF18 (mKGN-ORF18) WT R158A”: the response came to 87.3%. “N-terminally mKGN-tagged ORF18 (mKGN-ORF18) WT P14A”: the response amounted to 99.9%. The same measure, in the same setting: as for “N-terminally mKGN-tagged ORF18 (mKGN-ORF18) WT E36A”, the figure is 55.9%. Still for that read-out and setting: as for “N-terminally mKGN-tagged ORF18 (mKGN-ORF18) WT H41A”, the figure is 47.4%.

Consider “N-terminally mKGN-tagged ORF18 (mKGN-ORF18) WT C166A”, for which the response worked out at 99.6%. On the same count and under the same terms, the same measure for “N-terminally mKGN-tagged ORF18 (mKGN-ORF18) WT G171A”: 98.6%; for “N-terminally mKGN-tagged ORF18 (mKGN-ORF18) WT L167A”: 96.6%.

In the case of “N-terminally mKGN-tagged ORF18 (mKGN-ORF18) WT L159A”, the response is 99.9%. On the same count and under the same terms, the same measure for “N-terminally mKGN-tagged ORF18 (mKGN-ORF18) WT L24A”: 93.4%; for “N-terminally mKGN-tagged ORF18 (mKGN-ORF18) WT L44A”: 94.7%. The same measure, in the same setting: the same measure for “N-terminally mKGN-tagged ORF18 (mKGN-ORF18) WT P156A”: 99.8%; for “N-terminally mKGN-tagged ORF18 (mKGN-ORF18) WT G15A”: 99.6%.

With “N-terminally mKGN-tagged ORF18 (mKGN-ORF18) WT L37A”, the response came out at 98.7%. On the same count and under the same terms, the same measure for “N-terminally mKGN-tagged ORF18 (mKGN-ORF18) WT L29A”: 58.8%.

The next test concerns the target C-terminally mKGC-tagged ORF30 (ORF30-mKGC) (Kaposi's sarcoma-associated herpesvirus (KSHV; BAC16, strain JSC-1)). Nature of the test: split reporter (BiFC, NanoBiT); split mKusabira-Green (mKGN/mKGC) BiFC in 293T cells, co-transfected by the calcium phosphate method, all combinations of tag type and location; cells fixed two days after transfection, gated by FSC/SSC, ratio of mKG-positive cells by flow cytometry.
Settings: not given
Take “N-terminally mKGN-tagged ORF18 (mKGN-ORF18) WT (natural protein)”: the mKG-positive cells (%) is 70%.

The target of a further test is p50-mKGC (pCONT-2) (UniProt P19838). In words: split reporter (BiFC, NanoBiT); split mKusabira-Green BiFC in 293T cells, lipofection of mKGN-ORF18 alanine-scanning mutants with ORF30-mKGC and mCherry as transfection control; mCherry-positive cells gated, % mKG-positive cells by flow cytometry; block mutants under 20% and single mutants under 60% counted as binding-negative.
Chain of UniProt P19838 (P19838 1-433): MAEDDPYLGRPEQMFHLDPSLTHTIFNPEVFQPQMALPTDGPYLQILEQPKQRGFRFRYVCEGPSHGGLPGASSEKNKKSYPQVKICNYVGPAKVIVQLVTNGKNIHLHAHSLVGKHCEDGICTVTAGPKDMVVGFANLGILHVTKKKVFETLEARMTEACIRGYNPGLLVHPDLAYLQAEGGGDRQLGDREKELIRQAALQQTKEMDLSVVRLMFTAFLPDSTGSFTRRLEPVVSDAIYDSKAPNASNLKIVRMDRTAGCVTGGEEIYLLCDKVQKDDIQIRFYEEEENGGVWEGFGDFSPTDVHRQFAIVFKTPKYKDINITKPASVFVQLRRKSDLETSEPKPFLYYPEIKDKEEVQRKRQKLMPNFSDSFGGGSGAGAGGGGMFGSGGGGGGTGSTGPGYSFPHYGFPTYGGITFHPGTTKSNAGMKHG
Settings: not given
Turning to “p65-mKGN (pCONT-1) (from UniProt Q04206 1-551) (natural protein)”, the mKG-positive cells (%) was more than 90%.
